We go through one protein from publication doi:10.1101/2020.10.11.334888 (bioRxiv, 2020).

The data set deals with the molecule itself. Put plainly: cryo-EM structure.

B1: FliF in the native flagellar basal body (native MS ring) (natural protein)
chain: MSATASTATQPKPLEWLNRLRANPRIPLIVAGSAAVAIVVAMVLWAKTPDYRTLFSNLSDQDGGAIVAQLTQMNIPYRFANGSGAIEVPADKVHELRLRLAQQGLPKGGAVGFELLDQEKFGISQFSEQVNYQRALEGELARTIETLGPVKSARVHLAMPKPSLFVREQKSPSASVTVTLEPGRALDEGQISAVVHLVSSAVAGLPPGNVTLVDQSGHLLTQSNTSGRDLNDAQLKFANDVESRIQRRIEAILSPIVGNGNVHAQVTAQLDFANKEQTEEHYSPNGDASKATLRSRQLNISEQVGAGYPGGVPGALSNQPAPPNEAPIATPPTNQQNAQNTPQTSTSTNSNSAGPRSTQRNETSNYEVDRTIRHTKMNVGDIERLSVAVVVNYKTLADGKPLPLTADQMKQIEDLTREAMGFSDKRGDTLNVVNSPFSAVDNTGGELPFWQQQSFIDQLLAAGRWLLVLVVAWILWRKAVRPQLTRRVEEAKAAQEQAQVRQETEEAVEVRLSKDEQLQQRRANQRLGAEVMSQRIREMSDNDPRVVALVIRQWMSNDHE
On to B1, for which the “stoichiometry N” value was 34.

One may read the stoichiometry N as a count of units in the complex or per binding partner.
